According to patent US20220194997A1, “SUMO PEPTIDES FOR TREATING NEURODEGENERATIVE DISEASES” (The Chinese University of Hong Kong, priority 2019, published 2022):

Molecular target: SUMO1(15-55) (human)
Assay: MST (FIG. 11b)

Sequence of SUMO1(15-55) (human) (peptide, as listed by the source limits assumed): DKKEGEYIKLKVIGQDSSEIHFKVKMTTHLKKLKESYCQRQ

binding ability relative to the sole β1, β2-strand peptides (fold of the sole β1, β2-strand peptides): 0.037
Substance: αsyn(33-58) (peptide)
